Reference: article PMC8318587, “Structure-guided microbial targeting of antistaphylococcal prodrugs” (eLife, 2021)

How the values were obtained:
Test in all cases: Esterase substrate specificity, fluorogenic SAR library kinetics
Assay type in all cases: biochemical, Staphylococcus aureus
Details in all cases: other: SaGloB, fluorogenic ester substrate; pH 7.5; 37.0 °C
[1] = substrate: CCSC(C)C(=O)OCOc1ccc2c(c1)Oc1cc(OCOC(=O)C(C)SCC)ccc1C21OC(=O)c2ccccc21
Method: (§1) Kinetic measurements were performed according to [White et al., 2018] with minor variation. Lyophilized human and mouse sera were resuspended according to manufacturer instructions in highly pure, filtered water at protein concentrations of 85 mg/mL and 70 mg/mL, respectively. One milliliter of resuspended serum was added to a 24 mL mastermix for a final concentration of 31.25 mM Tris pH 7.5, 312.5 mM NaCl, 1.25 mM MgCl2, 12.5% glycerol, and 3.4 mg/mL or 2.8 mg/mL protein for human and mouse serum, respectively. For purified proteins, 5 mL of a 75 µg/mL stock was added to yield a 20 mL mastermix containing 31.25 mM Tris pH 7.5, 312.5 mM NaCl, 1.25 mM MgCl2, 12.5% glycerol, and 18.75 µg/mL protein. Mastermix was stored on ice when not in use. Twenty microliters of mastermix was transferred to a black, 96-well half area microplate (Corning, CLS3993) and prewarmed at 37°C. Fluorogenic substrates were prepared as 10 mM stock solutions in 100% DMSO and were diluted in water to a starting concentration of 500 µM. Enzyme catalyzed substrate hydrolysis was initiated by addition of 5 µL substrate dilution in technical duplicate to the prewarmed serum or protein solution. Final assay concentrations were as follows: 25 mM Tris pH 7.5, 250 mM NaCl, 1 mM MgCl2, 10% glycerol, and protein at a concentration of 2.72 mg/mL (human serum), 2.24 mg/mL (mouse serum), or 15 µg/mL (FrmB, GloB). The resulting change in fluorescence (λex = 485 nm, λem = 520 nm) was followed for 15 min at 37°C, collecting data every 30 s on a FLUOstar Omega microplate reader (BMG Labtech). Fluorescence measurements were converted to molar concentrations using a fluorescein standard curve (2.5 nmol–0.6 pmol). The initial rates of reaction were measured three independent times with two technical replicates per measurement and fit to a line using GraphPad Prism (GraphPad Software, La Jolla, CA). Initial rates of reaction were plotted versus the concentration of substrate and fit to a standard Michaelis–Menten equation (v = Vmax[S]/(Km + [S])), yielding estimates of Vmax and Km. Values for kcat and kcat/Km were calculated based on amount of enzyme added when purified enzymes were used.

[2] = substrate: CCCC(C)C(=O)OCOc1ccc2c(c1)Oc1cc(OCOC(=O)C(C)CCC)ccc1C21OC(=O)c2ccccc21
Method: as §1

[3] = substrate: CCOC(C)C(=O)OCOc1ccc2c(c1)Oc1cc(OCOC(=O)C(C)OCC)ccc1C21OC(=O)c2ccccc21
Method: as §1

[4] = substrate: CCCOCC(=O)OCOc1ccc2c(c1)Oc1cc(OCOC(=O)COCCC)ccc1C21OC(=O)c2ccccc21
Method: as §1

[5] = substrate: COCCC(=O)OCOc1ccc2c(c1)Oc1cc(OCOC(=O)CCOC)ccc1C21OC(=O)c2ccccc21
Method: as §1

[6] = substrate: CCSCCC(=O)OCOc1ccc2c(c1)Oc1cc(OCOC(=O)CCSCC)ccc1C21OC(=O)c2ccccc21
Method: as §1

[7] = substrate: CSC(C)C(=O)OCOc1ccc2c(c1)Oc1cc(OCOC(=O)C(C)SC)ccc1C21OC(=O)c2ccccc21
Method: as §1

[8] = substrate: C=CCOC(C)C(=O)OCOc1ccc2c(c1)Oc1cc(OCOC(=O)C(C)OCC=C)ccc1C21OC(=O)c2ccccc21
Method: as §1

[9] = substrate: CC(C)SCC(=O)OCOc1ccc2c(c1)Oc1cc(OCOC(=O)CSC(C)C)ccc1C21OC(=O)c2ccccc21
Method: as §1

[10] = substrate: CCCC(=O)OCOc1ccc2c(c1)Oc1cc(OCOC(=O)CCC)ccc1C21OC(=O)c2ccccc21
Method: as §1

[11] = substrate: CCOCC(=O)OCOc1ccc2c(c1)Oc1cc(OCOC(=O)COCC)ccc1C21OC(=O)c2ccccc21
Method: as §1

[12] = substrate: CSCC(=O)OCOc1ccc2c(c1)Oc1cc(OCOC(=O)CSC)ccc1C21OC(=O)c2ccccc21
Method: as §1

[13] = substrate: COCC(=O)OCOc1ccc2c(c1)Oc1cc(OCOC(=O)COC)ccc1C21OC(=O)c2ccccc21
Method: as §1

B1: SaGloB (Staphylococcus aureus subsp. aureus str. Newman) (protein)
chain: MRISSLTLGLVDTNTYFIENDKAVILIDPSGESEKIIKKLNQINKPLKAILLTHAHFDHIGAVDDIVDRFDVPVYMHEAEFDFLKDPVKNGADKFKQYGLPIITSKVTPEKLNEGSTEIEGFKFNVLHTPGHSPGSLTYVFDEFAVVGDTLFNNGIGRTDLYKGDYETLVDSIQDKIFELEGDLPLFPGHGPYTTVDDEQLNPFLHG
B1 was tested. Which Km [1] did it give?
The Km was 79.8 µM.

What about the Vmax [1] of the same protein?
The Vmax was 1.02 pmol*min-1*μg protein-1.

And the kcat [1]?
The kcat was 0.153 10-3 s-1.

And the kcat/Km [1]?
The kcat/Km was 1.92 M⁻¹ s⁻¹.

And the Km [2]?
The Km was 84.89 µM.

What about the Vmax [2] of the same protein?
The Vmax was 0.351 pmol*min-1*μg protein-1.

What about the kcat [2] of the same protein?
Its kcat is 0.0524 10-3 s-1.

And the kcat/Km [2]?
Its kcat/Km is 0.618 M⁻¹ s⁻¹.

And the Km [3]?
Its Km is 15.5 µM.

What about the Vmax [3] of the same protein?
The Vmax was 1.01 pmol*min-1*μg protein-1.

And the kcat [3]?
Its kcat is 0.151 10-3 s-1.

And the kcat/Km [3]?
The kcat/Km was 9.71 M⁻¹ s⁻¹.

And the Km [4]?
The Km was 8.41 µM.

What about the Vmax [4] of the same protein?
Its Vmax is 4.21 pmol*min-1*μg protein-1.

What about the kcat [4] of the same protein?
The kcat was 0.630 10-3 s-1.

What about the kcat/Km [4] of the same protein?
The kcat/Km was 74.8 M⁻¹ s⁻¹.

What about the Km [5] of the same protein?
The Km was 18.0 µM.

And the Vmax [5]?
Its Vmax is 1.39 pmol*min-1*μg protein-1.

And the kcat [5]?
The kcat was 0.208 10-3 s-1.

What about the kcat/Km [5] of the same protein?
The kcat/Km was 11.5 M⁻¹ s⁻¹.

And the Km [6]?
The Km was 31.7 µM.

What about the Vmax [6] of the same protein?
Its Vmax is 0.18 pmol*min-1*μg protein-1.

And the kcat [6]?
Its kcat is 0.0266 10-3 s-1.

What about the kcat/Km [6] of the same protein?
Its kcat/Km is 0.840 M⁻¹ s⁻¹.

What about the Km [7] of the same protein?
The Km was 49.5 µM.

And the Vmax [7]?
The Vmax was 0.722 pmol*min-1*μg protein-1.

What about the kcat [7] of the same protein?
Its kcat is 0.108 10-3 s-1.

And the kcat/Km [7]?
Its kcat/Km is 2.18 M⁻¹ s⁻¹.

What about the Km [8] of the same protein?
Its Km is 36.91 µM.

And the Vmax [8]?
The Vmax was 1.04 pmol*min-1*μg protein-1.

And the kcat [8]?
Its kcat is 0.156 10-3 s-1.

What about the kcat/Km [8] of the same protein?
The kcat/Km was 4.21 M⁻¹ s⁻¹.

What about the Km [9] of the same protein?
The Km was 65.8 µM.

And the Vmax [9]?
Its Vmax is 4.19 pmol*min-1*μg protein-1.

And the kcat [9]?
The kcat was 0.627 10-3 s-1.

What about the kcat/Km [9] of the same protein?
Its kcat/Km is 9.53 M⁻¹ s⁻¹.

What about the Km [10] of the same protein?
Its Km is 6.23 µM.

And the Vmax [10]?
The Vmax was 0.497 pmol*min-1*μg protein-1.

What about the kcat [10] of the same protein?
Its kcat is 0.0744 10-3 s-1.

And the kcat/Km [10]?
Its kcat/Km is 11.9 M⁻¹ s⁻¹.

What about the Km [11] of the same protein?
The Km was 42.0 µM.

And the Vmax [11]?
The Vmax was 46.4 pmol*min-1*μg protein-1.

What about the kcat [11] of the same protein?
The kcat was 6.93 10-3 s-1.

And the kcat/Km [11]?
Its kcat/Km is 165 M⁻¹ s⁻¹.

And the Km [12]?
Its Km is 32.49 µM.

What about the Vmax [12] of the same protein?
The Vmax was 14.9 pmol*min-1*μg protein-1.

And the kcat [12]?
Its kcat is 2.22 10-3 s-1.

And the kcat/Km [12]?
Its kcat/Km is 68.4 M⁻¹ s⁻¹.

And the Km [13]?
The Km was 73.5 µM.

And the Vmax [13]?
The Vmax was 217 pmol*min-1*μg protein-1.

And the kcat [13]?
The kcat was 32.5 10-3 s-1.

And the kcat/Km [13]?
The kcat/Km was 442 M⁻¹ s⁻¹.
